Publication PMC10978931, “Structure and function of Semaphorin-5A glycosaminoglycan interactions” (Nature Communications, 2024)

How the values were obtained:
[1] = target: the molecule itself; assay: mass photometry; Sema5A_(sema-TSR1-7) alone, 100 nM (half of it at measurement), 100 mM NaCl
[2] = target: the molecule itself; assay: crystal structure; Sema5A_(TSR3-4), four crystal forms (apo, nitrate, sulfate, sucrose octasulfate), sitting drop at 20 °C, 1.56-2.72 Å

Protein | stoichiometry N [1] | stoichiometry N [2]
human Semaphorin-5A ectodomain Sema5A_(sema-TSR1-7) (residues 23E-944S) (domain or fragment, UniProt Q13591 23-944, looked up, Semaphorin-5A, human, UniProtKB Q13591, residues 23E-944S (sema, PSI and TSR1-7 domains); Glycosylated (11 predicted N-glycan sites); also called full-length ectodomain human Sema5A; Sema5A ectodomain; source: HEK293T, transfected, conditioned medium; purified (Ni-NTA, SEC); not shown: His6, C-terminal, kept) EAQGTTQCQRTEHPVISYKEIGPWLREFRAKNAVDFSQLTFDPGQKELVVGARNYLFRLQLEDLSLIQAVEWECDEATKKACYSKGKSKEECQNYIRVLLVGGDRLFTCGTNAFTPVCTNRSLSNLTEIHDQISGMARCPYSPQHNSTALLTAGGELYAATAMDFPGRDPAIYRSLGILPPLRTAQYNSKWLNEPNFVSSYDIGNFTYFFFRENAVEHDCGKTVFSRAARVCKNDIGGRFLLEDTWTTFMKARLNCSRPGEVPFYYNELQSTFFLPELDLIYGIFTTNVNSIAASAVCVFNLSAIAQAFSGPFKYQENSRSAWLPYPNPNPHFQCGTVDQGLYVNLTERNLQDAQKFILMHEVVQPVTTVPSFMEDNSRFSHVAVDVVQGREALVHIIYLATDYGTIKKVRVPLNQTSSSCLLEEIELFPERRREPIRSLQILHSQSVLFVGLREHVVKIPLKRCQFYRTRSTCIGAQDPYCGWDVVMKKCTSLEESLSMTQWEQSISACPTRNLTVDGHFGVWSPWTPCTHTDGSAVGSCLCRTRSCDSPAPQCGGWQCEGPGMEIANCSRNGGWTPWTSWSPCSTTCGIGFQVRQRSCSNPTPRHGGRVCVGQNREERYCNEHLLCPPHMFWTGWGPWERCTAQCGGGIQARRRICENGPDCAGCNVEYQSCNTNPCPELKKTTPWTPWTPVNISDNGGHYEQRFRYTCKARLADPNLLEVGRQRIEMRYCSSDGTSGCSTDGLSGDFLRAGRYSAHTVNGAWSAWTSWSQCSRDCSRGIRNRKRVCNNPEPKYGGMPCLGPSLEYQECNILPCPVDGVWSCWSPWTKCSATCGGGHYMRTRSCSNPAPAYGGDICLGLHTEEALCNTQPCPESWSEWSDWSECEASGVQVRARQCILLFPMGSQCSGNTTESRPCVFDS | 2 | 
human Semaphorin-5A TSR3-4, Sema5A_(TSR3-4) (residues 652P-765T) (domain or fragment, UniProt Q13591 652-765, looked up, C-mannosyl tryptophan at W656 and W659; N-glycans reduced to single residues by EndoF1 (crystals), Semaphorin-5A, human, UniProtKB Q13591, residues 652P-765T (thrombospondin type-1 repeats 3 and 4); The tag was cleaved by HRV 3C protease for crystallization; Inter-protomer disulfides C689-C689' and C733-C733'; source: HEK293T, transfected (with kifunensine for crystallization), purified (Ni-NTA, 3C cleavage, SEC); not shown: 3C-Avi-His6, C-terminal, cleaved) PHMFWTGWGPWERCTAQCGGGIQARRRICENGPDCAGCNVEYQSCNTNPCPELKKTTPWTPWTPVNISDNGGHYEQRFRYTCKARLADPNLLEVGRQRIEMRYCSSDGTSGCST |  | 2
